Paper PMC6428754, “Peptidoglycan Remodeling Enables Escherichia coli To Survive Severe Outer Membrane Assembly Defect” (mBio, 2019)

Biological target: T1, oligohistidine-tagged PBP1B (E. coli, UniProt P02919 1-844)
T1 construct: PBP1B, bifunctional peptidoglycan synthase (glycosyltransferase and DD-transpeptidase) of Escherichia coli; source: purified
T1 sequence (looked up): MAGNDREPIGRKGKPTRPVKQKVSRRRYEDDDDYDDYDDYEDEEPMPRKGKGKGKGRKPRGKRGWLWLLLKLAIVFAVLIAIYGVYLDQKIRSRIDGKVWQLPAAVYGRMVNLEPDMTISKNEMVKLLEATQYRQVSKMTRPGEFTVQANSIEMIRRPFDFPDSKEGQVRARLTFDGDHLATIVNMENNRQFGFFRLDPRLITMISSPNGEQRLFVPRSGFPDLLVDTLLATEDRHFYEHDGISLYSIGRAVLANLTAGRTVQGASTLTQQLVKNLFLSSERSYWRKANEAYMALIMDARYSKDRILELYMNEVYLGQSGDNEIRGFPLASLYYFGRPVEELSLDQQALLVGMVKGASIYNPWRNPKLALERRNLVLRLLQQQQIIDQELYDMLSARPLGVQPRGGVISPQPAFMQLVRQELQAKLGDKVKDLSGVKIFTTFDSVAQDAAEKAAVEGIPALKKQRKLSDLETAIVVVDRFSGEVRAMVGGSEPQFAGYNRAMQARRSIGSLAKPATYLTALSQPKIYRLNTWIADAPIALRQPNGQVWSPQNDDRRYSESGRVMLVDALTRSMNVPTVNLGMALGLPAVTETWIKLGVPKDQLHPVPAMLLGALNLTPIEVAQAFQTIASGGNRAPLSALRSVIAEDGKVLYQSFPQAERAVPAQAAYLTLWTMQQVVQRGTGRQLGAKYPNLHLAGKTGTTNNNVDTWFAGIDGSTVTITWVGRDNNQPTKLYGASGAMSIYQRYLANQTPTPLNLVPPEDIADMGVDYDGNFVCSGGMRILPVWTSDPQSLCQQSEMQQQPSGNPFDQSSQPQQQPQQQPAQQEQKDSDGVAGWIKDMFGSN
Assay: MST; microscale thermophoresis curves; means ± SD from three independent experiments; which partner was labelled is not told (Text S1)
Details: both partners purified

B1: LdtD (LD-transpeptidase, formerly YcbB), untagged (enzyme, E. coli, UniProt P22525 1-615, looked up)
chain: MLLNMMCGRQLSAISLCLAVTFAPLFNAQADEPEVIPGDSPVAVSEQGEALPQAQATAIMAGIQPLPEGAAEKARTQIESQLPAGYKPVYLNQLQLLYAARDMQPMWENRDAVKAFQQQLAEVAIAGFQPQFNKWVELLTDPGVNGMARDVVLSDAMMGYLHFIANIPVKGTRWLYSSKPYALATPPLSVINQWQLALDKGQLPTFVAGLAPQHPQYAAMHESLLALLCDTKPWPQLTGKATLRPGQWSNDVPALREILQRTGMLDGGPKITLPGDDTPTDAVVSPSAVTVETAETKPMDKQTTSRSKPAPAVRAAYDNELVEAVKRFQAWQGLGADGAIGPATRDWLNVTPAQRAGVLALNIQRLRLLPTELSTGIMVNIPAYSLVYYQNGNQVLDSRVIVGRPDRKTPMMSSALNNVVVNPPWNVPPTLARKDILPKVRNDPGYLESHGYTVMRGWNSREAIDPWQVDWSTITASNLPFRFQQAPGPRNSLGRYKFNMPSSEAIYLHDTPNHNLFKRDTRALSSGCVRVNKASDLANMLLQDAGWNDKRISDALKQGDTRYVNIRQSIPVNLYYLTAFVGADGRTQYRTDIYNYDLPARSSSQIVSKAEQLIR
notes: LdtD (formerly YcbB), LD-transpeptidase of Escherichia coli; Printed as 'untagged LdtD'; source: purified
For B1, the Kd was 112 nM.
